Test results from paper PMC11551741 (Nucleic Acids Research, 2024).
Non-standard residues stand in square brackets, D forms with d. pS = N[C@@H](COP(=O)(O)O)C(=O)O

What was measured:
[1] = biological target: unmodified nucleosome core particle (H2A, H2B, H3.1, H4 and 147 bp Widom 601 DNA) (human) (UniProt P0C0S8); test: native gel or EMSA; 10 nM nucleosome core particles with rising SLF1^ARD or SLF1^ARD_4A, room temperature, 20 mins; Diamond DNA stain
SLF1 tBRCT, 6-208 = SLF1 tBRCT, 6-208 (UniProt Q9BQI6); test: thermal melt (SYPRO Orange) of SLF1tBRCT
SLF1 tBRCT, 6-208, sequence (Q9BQI6 whole entry, looked up, tested part not stated): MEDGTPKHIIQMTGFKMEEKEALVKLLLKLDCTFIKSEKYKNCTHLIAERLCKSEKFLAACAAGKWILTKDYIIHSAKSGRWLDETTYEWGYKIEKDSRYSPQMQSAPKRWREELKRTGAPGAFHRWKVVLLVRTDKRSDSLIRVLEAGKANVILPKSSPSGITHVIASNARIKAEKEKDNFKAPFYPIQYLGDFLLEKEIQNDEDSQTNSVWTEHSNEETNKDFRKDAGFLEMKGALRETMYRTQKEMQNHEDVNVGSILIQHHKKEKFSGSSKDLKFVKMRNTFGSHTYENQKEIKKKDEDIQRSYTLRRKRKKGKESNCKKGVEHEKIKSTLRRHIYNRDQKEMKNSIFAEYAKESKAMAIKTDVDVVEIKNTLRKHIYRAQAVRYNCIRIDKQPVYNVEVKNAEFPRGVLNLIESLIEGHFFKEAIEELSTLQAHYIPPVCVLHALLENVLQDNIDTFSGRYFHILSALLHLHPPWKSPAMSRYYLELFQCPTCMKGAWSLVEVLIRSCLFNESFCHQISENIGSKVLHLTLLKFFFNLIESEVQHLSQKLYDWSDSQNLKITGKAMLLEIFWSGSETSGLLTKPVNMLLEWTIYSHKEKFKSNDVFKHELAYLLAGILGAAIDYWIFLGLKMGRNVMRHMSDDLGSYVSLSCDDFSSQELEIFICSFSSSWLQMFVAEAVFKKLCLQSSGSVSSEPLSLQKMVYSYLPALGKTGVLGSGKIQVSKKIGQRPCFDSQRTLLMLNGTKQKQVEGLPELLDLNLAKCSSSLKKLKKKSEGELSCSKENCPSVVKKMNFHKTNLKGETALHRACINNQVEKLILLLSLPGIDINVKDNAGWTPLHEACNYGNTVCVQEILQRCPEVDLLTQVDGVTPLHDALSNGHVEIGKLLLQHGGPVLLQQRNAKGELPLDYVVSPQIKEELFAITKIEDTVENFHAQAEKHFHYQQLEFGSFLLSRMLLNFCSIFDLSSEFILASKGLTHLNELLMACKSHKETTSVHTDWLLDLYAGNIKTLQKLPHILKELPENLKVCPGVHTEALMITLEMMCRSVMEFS

[2] = biological target: RAD18 peptide 437-452 (Homo sapiens) (UniProt Q9NS91); test: ITC; conditions: cited from earlier work
[3] = biological target: T1, SLF1^tBRCT (tandem BRCT domain of SLF1, residues 6-208) (human, UniProt Q9BQI6 6-208); test: thermal melt (SYPRO Orange); 10 μM SLF1^tBRCT proteins with 200 μM RAD18 peptides; 25-95°C; Tm of SLF1^tBRCT; conditions: both partners purified
T1 construct: SLF1 (SMC5-SMC6 complex localization factor 1), human, tandem BRCT domain, residues 6-208; pHAT4 construct; also called wild-type SLF1^tBRCT; not shown: His-tag, N-terminal, cleaved
T1 sequence (looked up): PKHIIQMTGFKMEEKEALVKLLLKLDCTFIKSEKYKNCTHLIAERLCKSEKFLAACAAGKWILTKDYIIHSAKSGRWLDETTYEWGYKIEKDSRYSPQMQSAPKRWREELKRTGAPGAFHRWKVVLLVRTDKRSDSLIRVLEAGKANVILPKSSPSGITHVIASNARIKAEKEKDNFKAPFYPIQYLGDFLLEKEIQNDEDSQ

SLF1 tBRCT [4] = biological target: T2, SLF1 tBRCT (Homo sapiens, UniProt Q9BQI6 6-208); test: fluorescence polarization; 20 mM Tris pH 8.0, 150 mM NaCl, 5% glycerol, room temperature; DNA EMSA: 40 mM Tris pH 7.5, 100 mM KCl, 0.2 mM DTT, 10% glycerol, 20 ug/ml BSA, 10 nM DNA, 4 C 30 min; NCP EMSA: 10 nM NCP, room temperature 20 min; FP: 20 mM; conditions: protein: recombinant; tags: none (His-tag cleaved by TEV); label: 5' 6-FAM on strand 1; blunt
T2 sequence: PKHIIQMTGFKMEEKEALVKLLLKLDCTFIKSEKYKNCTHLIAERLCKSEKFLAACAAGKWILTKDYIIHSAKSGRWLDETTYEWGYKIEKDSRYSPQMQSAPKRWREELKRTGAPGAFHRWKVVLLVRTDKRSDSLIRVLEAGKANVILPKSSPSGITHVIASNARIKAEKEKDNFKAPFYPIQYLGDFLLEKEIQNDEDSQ

BRCA1 tBRCT = BRCA1 tBRCT (UniProt P38398 1646-1859); test: EMSA; no interaction observed; DNA EMSA: 40 mM Tris pH 7.5, 100 mM KCl, 0.2 mM DTT, 10% glycerol, 20 ug/ml BSA, 10 nM DNA, 4 C 30 min; NCP EMSA: 10 nM NCP, room temperature 20 min; FP: 20 mM; conditions: protein: recombinant; tags: N-terminal non-cleavable His-tag; label: 5' 6-FAM on strand 1; blunt
BRCA1 tBRCT, sequence (P38398 1646-1859): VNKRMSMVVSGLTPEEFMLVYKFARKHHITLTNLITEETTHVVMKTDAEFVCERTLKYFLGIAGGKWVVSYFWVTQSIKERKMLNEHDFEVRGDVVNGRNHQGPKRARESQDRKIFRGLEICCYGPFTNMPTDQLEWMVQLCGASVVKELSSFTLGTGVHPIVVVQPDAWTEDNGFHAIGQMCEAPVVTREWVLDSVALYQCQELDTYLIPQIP

SLF1 ARD = biological target: T3, SLF1 ARD (Homo sapiens, UniProt Q9BQI6 802-934); test: EMSA; no shift; DNA EMSA: 40 mM Tris pH 7.5, 100 mM KCl, 0.2 mM DTT, 10% glycerol, 20 ug/ml BSA, 10 nM DNA, 4 C 30 min; NCP EMSA: 10 nM NCP, room temperature 20 min; FP: 20 mM; conditions: protein: recombinant; tags: none (His-tag cleaved by TEV); label: 5' 6-FAM on strand 1; blunt
T3 sequence: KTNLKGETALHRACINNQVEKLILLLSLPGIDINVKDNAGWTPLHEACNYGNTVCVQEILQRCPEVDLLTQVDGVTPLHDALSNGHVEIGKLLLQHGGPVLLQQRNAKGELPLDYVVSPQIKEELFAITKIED

SLF1 tBRCT K56A = biological target: T4, SLF1 tBRCT K56A (Homo sapiens, UniProt Q9BQI6 6-208, K56A); test: thermal melt; 30 uM DNA, 10 uM protein; DNA EMSA: 40 mM Tris pH 7.5, 100 mM KCl, 0.2 mM DTT, 10% glycerol, 20 ug/ml BSA, 10 nM DNA, 4 C 30 min; NCP EMSA: 10 nM NCP, room temperature 20 min; FP: 20 mM; conditions: protein: recombinant; tags: none (His-tag cleaved by TEV); blunt
T4 sequence: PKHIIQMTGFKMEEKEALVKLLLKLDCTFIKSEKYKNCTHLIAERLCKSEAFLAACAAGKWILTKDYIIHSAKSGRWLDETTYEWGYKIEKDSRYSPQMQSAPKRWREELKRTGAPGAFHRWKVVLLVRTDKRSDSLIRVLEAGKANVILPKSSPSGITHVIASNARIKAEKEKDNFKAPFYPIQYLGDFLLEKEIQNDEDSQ

SLF1 tBRCT T13A = biological target: T5, SLF1 tBRCT T13A (Homo sapiens, UniProt Q9BQI6 6-208, T13A); test: as above; conditions: protein: recombinant; tags: none (His-tag cleaved by TEV); blunt
T5 sequence: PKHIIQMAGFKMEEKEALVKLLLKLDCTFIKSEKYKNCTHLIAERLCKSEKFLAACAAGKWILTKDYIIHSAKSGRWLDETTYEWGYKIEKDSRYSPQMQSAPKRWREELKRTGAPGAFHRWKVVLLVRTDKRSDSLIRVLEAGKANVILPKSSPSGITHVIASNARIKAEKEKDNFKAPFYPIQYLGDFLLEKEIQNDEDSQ

SLF1 tBRCT [5] = biological target: T2, SLF1 tBRCT; test: as above; conditions: protein: recombinant; tags: none (His-tag cleaved by TEV); blunt

SLF1^ARD (ankyrin repeat domain of SLF1, residues 802-934), His-tag cleaved (from UniProt Q9BQI6 802-934) (domain or fragment)
affinity [1]: 1 to 5 µM

RAD18 441-446 (from UniProt Q9NS91) pS442/pS444 peptide
other: ΔTm vs SLF1tBRCT alone (SLF1 tBRCT, 6-208; reference: pS442 peptide, sites S444): stronger; reference 0.8
other: ΔTm vs SLF1tBRCT alone (SLF1 tBRCT, 6-208; reference: pS444 peptide, sites S442): stronger; reference 0.4
other: ΔTm vs SLF1tBRCT alone (SLF1 tBRCT, 6-208; reference: unphosphorylated peptide SSSSDI, sites S442,S444): 3.7 °C

SLF1 tBRCT (from UniProt Q9BQI6)
Kd [2]: 12 nM

B1: RAD18(442p,444p)^peptide (S(pS)S(pS)DI) (peptide)
peptide: Ac-S[pS]S[pS]DI-NH2
SMILES: CC[C@H](C)[C@H](NC(=O)[C@H](CC(=O)O)NC(=O)[C@H](COP(=O)(O)O)NC(=O)[C@H](CO)NC(=O)[C@H](COP(=O)(O)O)NC(=O)[C@H](CO)NC(C)=O)C(N)=O
notes: RAD18, human, residues S441 to I446; also called double phosphorylated RAD18 peptide; double-phosphorylated hexapeptide; source: synthetic peptide (Biomatik)
ΔTm [3]: 3.7 °C

B2: 50 bp DNA, 6-FAM (dsDNA)
DNA 1: TAAATGCCAATGCTGCTGATACGTACTCGGACTGATTCGGAACTGTAACG
DNA 2: CGTTACAGTTCCGAATCAGTCCGAGTACGTATCAGCAGCATTGGCATTTA
Kd (SLF1 tBRCT [4]): 430 nM
binding result (BRCA1 tBRCT): no binding
binding result (SLF1 ARD): no binding

B3: 50 bp DNA, unlabelled (dsDNA)
DNA 1: TAAATGCCAATGCTGCTGATACGTACTCGGACTGATTCGGAACTGTAACG
DNA 2: CGTTACAGTTCCGAATCAGTCCGAGTACGTATCAGCAGCATTGGCATTTA
binding signal (SLF1 tBRCT K56A): 6.4 C (delta Tm)
binding signal (SLF1 tBRCT T13A): 6.9 C (delta Tm)
binding signal (SLF1 tBRCT [5]): 7.1 C (delta Tm)
